To fix the notation:
T1: ERG auto-inhibited construct (ERGi, 272-388) (Homo sapiens, UniProt P11308)
T1 construct: made in house
T1 sequence (P11308 272-388 isoform P11308-1): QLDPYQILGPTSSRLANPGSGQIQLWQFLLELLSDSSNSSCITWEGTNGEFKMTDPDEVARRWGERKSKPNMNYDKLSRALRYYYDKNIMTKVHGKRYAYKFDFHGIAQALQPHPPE

B1: 289-388: ERG truncation construct, residues 289-388 (protein, UniProt P11308 289-388, looked up, fragment)
chain: QLDPYQILGPTSSRLANPGSGQIQLWQFLLELLSDSSNSSCITWEGTNGEFKMTDPDEVARRWGERKSKPNMNYDKLSRALRYYYDKNIMTKVHGKRYAY
B2: 1-462: ERG construct, residues 1-462 (protein, UniProt P11308 1-462, looked up, fragment)
chain: MASTIKEALSVVSEDQSLFECAYGTPHLAKTEMTASSSSDYGQTSKMSPRVPQQDWLSQPPARVTIKMECNPSQVNGSRNSPDECSVAKGGKMVGSPDTVGMNYGSYMEEKHMPPPNMTTNERRVIVPADPTLWSTDHVRQWLEWAVKEYGLPDVNILLFQNIDGKELCKMTKDDFQRLTPSYNADILLSHLHYLRETPLPHLTSDDVDKALQNSPRLMHARNTGGAAFIFPNTSVYPEATQRITTRPDLPYEPPRRSAWTGHGHPTPQSKAAQPSPSTVPKTEDQRPQLDPYQILGPTSSRLANPGSGQIQLWQFLLELLSDSSNSSCITWEGTNGEFKMTDPDEVARRWGERKSKPNMNYDKLSRALRYYYDKNIMTKVHGKRYAYKFDFHGIAQALQPHPPESSLYKYPSDLPYMGSYHAHPQKMNFVAPHPPALPVTSSSFFAAPNPYWNSPTGGIYP
B3: 210-462: ERG truncation construct, residues 210-462 (protein, UniProt P11308 210-462, looked up, fragment)
chain: KALQNSPRLMHARNTGGAAFIFPNTSVYPEATQRITTRPDLPYEPPRRSAWTGHGHPTPQSKAAQPSPSTVPKTEDQRPQLDPYQILGPTSSRLANPGSGQIQLWQFLLELLSDSSNSSCITWEGTNGEFKMTDPDEVARRWGERKSKPNMNYDKLSRALRYYYDKNIMTKVHGKRYAYKFDFHGIAQALQPHPPESSLYKYPSDLPYMGSYHAHPQKMNFVAPHPPALPVTSSSFFAAPNPYWNSPTGGIYP
B4: 289-378: the uninhibited DNA binding domain construct of ERG (289-378) (protein, UniProt P11308 289-378, looked up, fragment)
chain: QLDPYQILGPTSSRLANPGSGQIQLWQFLLELLSDSSNSSCITWEGTNGEFKMTDPDEVARRWGERKSKPNMNYDKLSRALRYYYDKNIM
B5: 272-412: ERG truncation construct, residues 272-412 (protein, UniProt P11308 272-412, looked up, fragment)
chain: AAQPSPSTVPKTEDQRPQLDPYQILGPTSSRLANPGSGQIQLWQFLLELLSDSSNSSCITWEGTNGEFKMTDPDEVARRWGERKSKPNMNYDKLSRALRYYYDKNIMTKVHGKRYAYKFDFHGIAQALQPHPPESSLYKYP
B6: 289-412: ERG truncation construct, residues 289-412 (protein, UniProt P11308 289-412, looked up, fragment)
chain: QLDPYQILGPTSSRLANPGSGQIQLWQFLLELLSDSSNSSCITWEGTNGEFKMTDPDEVARRWGERKSKPNMNYDKLSRALRYYYDKNIMTKVHGKRYAYKFDFHGIAQALQPHPPESSLYKYP
B7: 272-378: ERG truncation construct, residues 272-378 (protein, UniProt P11308 272-378, looked up, fragment)
chain: AAQPSPSTVPKTEDQRPQLDPYQILGPTSSRLANPGSGQIQLWQFLLELLSDSSNSSCITWEGTNGEFKMTDPDEVARRWGERKSKPNMNYDKLSRALRYYYDKNIM
B8: 272-388: the auto-inhibited construct of ERG (272-388) (protein, UniProt P11308 272-388, looked up, fragment)
chain: AAQPSPSTVPKTEDQRPQLDPYQILGPTSSRLANPGSGQIQLWQFLLELLSDSSNSSCITWEGTNGEFKMTDPDEVARRWGERKSKPNMNYDKLSRALRYYYDKNIMTKVHGKRYAY

In the first test the target is T1, ERG auto-inhibited construct (ERGi, 272-388). The test can be described thus: ERGi-DNA fluorescence polarization assay. It counts as binding. To be noted: optimized fragment analogs, values in text; read-out: IC50. From the text: The constructs of ERG which retain full auto-inhibition were previously delineated (17). Fluorescence polarization-based assays for DNA binding were then developed, which were used for screening. In addition to the auto-inhibited form of ERG, it was important to also have an assay using its Ets domain, i.e., the uninhibited form of the protein, to compare action of compounds. Compounds which are active against the auto-inhibited form of the protein but have little or no effect on the uninhibited form were sought, indicating their binding is mediated by the non-conserved auto-inhibitory modules rather than the highly conserved Ets domain. […] Fragment screening is an alternative approach that has gained a great deal of favor in the pharma industry recently that employs relatively small molecules (22). […] The auto-inhibited construct was screened first with a dose dependent screen of actives with ERGi using fluorescein- and Texas Red-DNA and then the positive hits were counter-screened with the ERG Ets domain, specifically a screen of actives with ERGu, the latter screen serving to remove compounds which bind to the conserved Ets domain or to DNA, which left 26 compounds which inhibit the auto-inhibited construct of ERG binding to DNA but not the uninhibited ERG (the Ets domain) binding to DNA. ERGi is the auto-inhibited construct of ERG (272-388) and ERGu is the uninhibited DNA binding domain construct of ERG (289-378). […] The IC50 of the validated hits was 0.6-7 mM. […] Importantly, chemical shift changes upon compound addition are observed in the ^15N-^1H HSQC NMR spectra of ERG for amino acids located in the auto-inhibitory modules of ERG, indicating they do interact with these regions of the protein. It is critical to also develop assays for other ETS family members to assess the specificity of action of the compounds identified in the screen, so auto-inhibited constructs were expressed and assays were developed for five other ETS family members and assays for additional members of the family were also developed.
Using a standard medicinal chemistry approach, further optimization of the fragment hits were pursued. The specificity of parent fragments and their optimized derivatives with 5 additional Ets proteins which are representatives of 5 additional sub-families, were evaluated, as shown in Table 2. […] NA in Table 2 represents no activity up to the 2000 μM maximum concentration. >number in Table 2 represents some activity at highest concentrations so data fit with a lower bound to obtain an estimate of IC50.
A general note: Fluorescence polarisation rises when a labelled molecule tumbles more slowly, as on binding a larger partner.
As for `Cc1ccc(-c2nc3ccccc3o2)cc1C` [KK-19-109], the IC50 (as a rule, the concentration needed to halve the response being measured) was 63000 nM.

The target in another test is DNA.
Assay: not given
The following applies: ITC, ERG construct binding to DNA; ±SE in cell beside; cited from earlier work.
Consider B1, for which the Kd (usually the concentration at which binding is half-saturated) is 41 nM.

As for B2, the equilibrium dissociation constant (Kd) is 121 nM.

For B3, the dissociation constant Kd was 104 nM.

Regarding B4, the Kd was 37 nM.

Turning to B5, the Kd is 101 nM.

As for B6, the Kd was 51 nM.

Consider B7, for which the Kd is 33 nM.

For B8, the Kd is 176 nM.
